Assay results as given in the RNAGym collection of RNA variant scans (doi:10.7554/elife.80360).

B1: CPEB3 Ribozyme (parent)
chain: GGGGGCCACAGCAGAAGCGUUCACGUCGCGGCCCCUGUCAGAUUCUGGUGAAUCUGCGAAUUCUGCUGU

Variants of: B1
Assay: self-cleavage, relative activity (ratio to wild type); higher = more cleavage; co-transcriptional

Variant	self-cleavage
GGGGGCCACAGCAGAAGCGUUCACGUCGCGGCCCCUGUCAGGUUCUGGUGAAUCUGCGAACUCUGCUGU [A42G U61C]	0.521
GGGGGCCACAGCAGAAGCGUUCACGUCGCGGCCCCUGUCAGGUUCUGGUGAAUCUGCGAAAUCUGCUGU [A42G U61A]	0.693
GGGGGCCACAGCAGAAGCGUUCACGUCGCGGCCCCUGUCAGUUUCUGGUGAAUUUGCGAAUUCUGCUGU [A42U C54U]	0.81
GGGGGCCACAGCAGAAGCGUUCACGUCGCGGCCCCUGUCAGAAUCUGGUGCAUCUGCGAAUUCUGCUGU [U43A A51C]	0.933
GGGGGCCACAGCAGAAGCGUUCACGUCGCGGCCCCUGUCAGAAUCUGGUGAACCUGCGAAUUCUGCUGU [U43A U53C]	0.795
GGGGGCCACAGCAGAAGCGUUCACGUCGCGGCCCCUGUCAGAAUCUGGUGAAACUGCGAAUUCUGCUGU [U43A U53A]	0.946
GGGGGCCACAGCAGAAGCGUUCACGUCGCGGCCCCUGUCAGUUUUUGGUGAAUCUGCGAAUUCUGCUGU [A42U C45U]	0.997
GGGGGCCACAGCAGAAGCGUUCACGUCGCGGCCCCUGUCAGUUUAUGGUGAAUCUGCGAAUUCUGCUGU [A42U C45A]	0.889
GGGGGCCACAGCAGAAGCGUUCACGUCGCGGCCCCUGUCAGUUUGUGGUGAAUCUGCGAAUUCUGCUGU [A42U C45G]	0.89
GGGGGCCACAGCAGAAGCGUUCACGUCGCGGCCCCUGUCAGGUUCUGAUGAAUCUGCGAAUUCUGCUGU [A42G G48A]	0.979
GGGGGCCACAGCAGAAGCGUUCACGUCGCGGCCCCUGUCAGGUUCUGGUGAAUCUGGGAAUUCUGCUGU [A42G C57G]	0.276
GGGGGCCACAGCAGAAGCGUUCACGUCGCGGCCCCUGUCAGGUUCUGGUGAAUCUGAGAAUUCUGCUGU [A42G C57A]	0.306
GGGGGCCACAGCAGAAGCGUUCACGUCGCGGCCCCUGUCAGUUUCUGGUGAAUCUGAGAAUUCUGCUGU [A42U C57A]	0.379
GGGGGCCACAGCAGAAGCGUUCACGUCGCGGCCCCUGUCAGUUUCUGGUGAAUCUGGGAAUUCUGCUGU [A42U C57G]	0.298
GGGGGCCACAGCAGAAGCGUUCACGUCGCGGCCCCUGUCAGUUUCUGGUGAAUCUGCGAAUUCCGCUGU [A42U U64C]	0.609
GGGGGCCACAGCAGAAGCGUUCACGUCGCGGCCCCUGUCAGUUGCUGGUGAAUCUGCGAAUUCUGCUGU [A42U U44G]	0.859
GGGGGCCACAGCAGAAGCGUUCACGUCGCGGCCCCUGUCAGUUCCUGGUGAAUCUGCGAAUUCUGCUGU [A42U U44C]	0.913
GGGGGCCACAGCAGAAGCGUUCACGUCGCGGCCCCUGUCAGAAUCUGGUGAAUCUGCGACUUCUGCUGU [U43A A60C]	0.281
GGGGGCCACAGCAGAAGCGUUCACGUCGCGGCCCCUGUCAGGUUCUGGUAAAUCUGCGAAUUCUGCUGU [A42G G50A]	0.88
GGGGGCCACAGCAGAAGCGUUCACGUCGCGGCCCCUGUCAGGUUCUGGUCAAUCUGCGAAUUCUGCUGU [A42G G50C]	0.789
GGGGGCCACAGCAGAAGCGUUCACGUCGCGGCCCCUGUCAGUUUCUGGUGAAUCUGCUAAUUCUGCUGU [A42U G58U]	0.965
GGGGGCCACAGCAGAAGCGUUCACGUCGCGGCCCCUGUCAGUUUCUGGUGAACCUGCGAAUUCUGCUGU [A42U U53C]	0.935
GGGGGCCACAGCAGAAGCGUUCACGUCGCGGCCCCUGUCAGUUUCUAGUGAAUCUGCGAAUUCUGCUGU [A42U G47A]	0.957
GGGGGCCACAGCAGAAGCGUUCACGUCGCGGCCCCUGUCAGAAUCUGGUGAAUCUGCGCAUUCUGCUGU [U43A A59C]	0.573
GGGGGCCACAGCAGAAGCGUUCACGUCGCGGCCCCUGUCAGAAUCUGGUGAAUCUGCGGAUUCUGCUGU [U43A A59G]	0.782
GGGGGCCACAGCAGAAGCGUUCACGUCGCGGCCCCUGUCAGAAUCUGGUGAAUCUGCGUAUUCUGCUGU [U43A A59U]	0.579

Variant	self-cleavage
GGGGGCCACAGCAGAAGCGUUCACGUCGCGGCCCCUGUCAGUUUCUGGUGGAUCUGCGAAUUCUGCUGU [A42U A51G]	0.933
GGGGGCCACAGCAGAAGCGUUCACGUCGCGGCCCCUGUCAGAAUCUGGUGAAUCUGGGAAUUCUGCUGU [U43A C57G]	0.357
GGGGGCCACAGCAGAAGCGUUCACGUCGCGGCCCCUGUCAGGUUCUCGUGAAUCUGCGAAUUCUGCUGU [A42G G47C]	0.941
GGGGGCCACAGCAGAAGCGUUCACGUCGCGGCCCCUGUCAGGUUCUGGUGAAUCUGCGAAUUCAGCUGU [A42G U64A]	0.602
GGGGGCCACAGCAGAAGCGUUCACGUCGCGGCCCCUGUCAGGUUCUGGUGAAUCUGCGAAUUCCGCUGU [A42G U64C]	0.678
GGGGGCCACAGCAGAAGCGUUCACGUCGCGGCCCCUGUCAGGUUCUGGUGAAUCUGCGAAUUCGGCUGU [A42G U64G]	0.693
GGGGGCCACAGCAGAAGCGUUCACGUCGCGGCCCCUGUCAGGUUCUGGUGAAUCUGCGAAUGCUGCUGU [A42G U62G]	0.709
GGGGGCCACAGCAGAAGCGUUCACGUCGCGGCCCCUGUCAGGUUCUGGUGAAUCUGCGAAUACUGCUGU [A42G U62A]	0.733
GGGGGCCACAGCAGAAGCGUUCACGUCGCGGCCCCUGUCAGGUUCUGGUGAAUCUUCGAAUUCUGCUGU [A42G G56U]	0.567
GGGGGCCACAGCAGAAGCGUUCACGUCGCGGCCCCUGUCAGAAUGUGGUGAAUCUGCGAAUUCUGCUGU [U43A C45G]	0.868
GGGGGCCACAGCAGAAGCGUUCACGUCGCGGCCCCUGUCAGAAUCUGGUGAAUCUGCGAAGUCUGCUGU [U43A U61G]	0.485
GGGGGCCACAGCAGAAGCGUUCACGUCGCGGCCCCUGUCAGAAUCUGGUGAAUCUGCGAAAUCUGCUGU [U43A U61A]	0.651
GGGGGCCACAGCAGAAGCGUUCACGUCGCGGCCCCUGUCAGUUUCUGGUGAAUCUCCGAAUUCUGCUGU [A42U G56C]	0.326
GGGGGCCACAGCAGAAGCGUUCACGUCGCGGCCCCUGUCAGUUUCUGGUGAAUCUGCGUAUUCUGCUGU [A42U A59U]	0.677
GGGGGCCACAGCAGAAGCGUUCACGUCGCGGCCCCUGUCAGUUUCUGGUGAAUCUGCGCAUUCUGCUGU [A42U A59C]	0.546
GGGGGCCACAGCAGAAGCGUUCACGUCGCGGCCCCUGUCAGGUGCUGGUGAAUCUGCGAAUUCUGCUGU [A42G U44G]	0.904
GGGGGCCACAGCAGAAGCGUUCACGUCGCGGCCCCUGUCAGGUUCCGGUGAAUCUGCGAAUUCUGCUGU [A42G U46C]	0.965
GGGGGCCACAGCAGAAGCGUUCACGUCGCGGCCCCUGUCAGUUUCUGGUGAAUCUGCGAACUCUGCUGU [A42U U61C]	0.435
GGGGGCCACAGCAGAAGCGUUCACGUCGCGGCCCCUGUCAGAAUCUGGUGAAUCUGCGAAUUUUGCUGU [U43A C63U]	0.86
GGGGGCCACAGCAGAAGCGUUCACGUCGCGGCCCCUGUCAGUGUCUGGUGAAUCUGCGAAUUCUGCUGU [A42U U43G]	0.735
GGGGGCCACAGCAGAAGCGUUCACGUCGCGGCCCCUGUCAGUCUCUGGUGAAUCUGCGAAUUCUGCUGU [A42U U43C]	0.77
GGGGGCCACAGCAGAAGCGUUCACGUCGCGGCCCCUGUCAGAAUCUGGUGAAUCCGCGAAUUCUGCUGU [U43A U55C]	0.289
GGGGGCCACAGCAGAAGCGUUCACGUCGCGGCCCCUGUCAGAAUCUGGUGAAUCGGCGAAUUCUGCUGU [U43A U55G]	0.283
GGGGGCCACAGCAGAAGCGUUCACGUCGCGGCCCCUGUCAGAAUCUGGUGACUCUGCGAAUUCUGCUGU [U43A A52C]	0.991
GGGGGCCACAGCAGAAGCGUUCACGUCGCGGCCCCUGUCAGAAUCUGGUGAGUCUGCGAAUUCUGCUGU [U43A A52G]	1
GGGGGCCACAGCAGAAGCGUUCACGUCGCGGCCCCUGUCAGGUUCUGGUGAACCUGCGAAUUCUGCUGU [A42G U53C]	0.891

Variant	self-cleavage
GGGGGCCACAGCAGAAGCGUUCACGUCGCGGCCCCUGUCAGUUUCUGGUGAAUCUGCGAAUUGUGCUGU [A42U C63G]	0.533
GGGGGCCACAGCAGAAGCGUUCACGUCGCGGCCCCUGUCAGUUUCUGGUGAAUCUGCGAAUUAUGCUGU [A42U C63A]	0.608
GGGGGCCACAGCAGAAGCGUUCACGUCGCGGCCCCUGUCAGUUUCUGGUGAAUCUGCGAAUUCUGCUCU [A42U G68C]	0.964
GGGGGCCACAGCAGAAGCGUUCACGUCGCGGCCCCUGUCAGUUUCUGGUGAAUCUGCGAAUUCUGCUUU [A42U G68U]	0.99
GGGGGCCACAGCAGAAGCGUUCACGUCGCGGCCCCUGUCAGGUUCUGGUGAAUGUGCGAAUUCUGCUGU [A42G C54G]	0.71
GGGGGCCACAGCAGAAGCGUUCACGUCGCGGCCCCUGUCAGUUUCUGGUGAAUCUGCGAAUUCUGCCGU [A42U U67C]	0.947
GGGGGCCACAGCAGAAGCGUUCACGUCGCGGCCCCUGUCAGUUUCGGGUGAAUCUGCGAAUUCUGCUGU [A42U U46G]	1.01
GGGGGCCACAGCAGAAGCGUUCACGUCGCGGCCCCUGUCAGUUUCAGGUGAAUCUGCGAAUUCUGCUGU [A42U U46A]	1.03
GGGGGCCACAGCAGAAGCGUUCACGUCGCGGCCCCUGUCAGUUUCUGGUAAAUCUGCGAAUUCUGCUGU [A42U G50A]	0.949
GGGGGCCACAGCAGAAGCGUUCACGUCGCGGCCCCUGUCAGAAUCUGGUGAAUCUGCCAAUUCUGCUGU [U43A G58C]	0.901
GGGGGCCACAGCAGAAGCGUUCACGUCGCGGCCCCUGUCAGUUUCUGGAGAAUCUGCGAAUUCUGCUGU [A42U U49A]	0.958
GGGGGCCACAGCAGAAGCGUUCACGUCGCGGCCCCUGUCAGAAUCUGGUGAAUCUGCGAAUCCUGCUGU [U43A U62C]	0.668
GGGGGCCACAGCAGAAGCGUUCACGUCGCGGCCCCUGUCAGUUUCUGUUGAAUCUGCGAAUUCUGCUGU [A42U G48U]	0.99
GGGGGCCACAGCAGAAGCGUUCACGUCGCGGCCCCUGUCAGUUUCUGGUGAAUCCGCGAAUUCUGCUGU [A42U U55C]	0.522
GGGGGCCACAGCAGAAGCGUUCACGUCGCGGCCCCUGUCAGAAUCUGCUGAAUCUGCGAAUUCUGCUGU [U43A G48C]	0.912
GGGGGCCACAGCAGAAGCGUUCACGUCGCGGCCCCUGUCAGAAUCUGGUGAAUCUGCGAAUUCUGCUAU [U43A G68A]	0.933
GGGGGCCACAGCAGAAGCGUUCACGUCGCGGCCCCUGUCAGUUUCUGGUGAAUCUGCGAAUUCUGCUGG [A42U U69G]	1.01
GGGGGCCACAGCAGAAGCGUUCACGUCGCGGCCCCUGUCAGGUUCUGGUGAAUCGGCGAAUUCUGCUGU [A42G U55G]	0.335
GGGGGCCACAGCAGAAGCGUUCACGUCGCGGCCCCUGUCAGUUUCUGGUGAAUCUGCGAAUUCUGGUGU [A42U C66G]	0.682
GGGGGCCACAGCAGAAGCGUUCACGUCGCGGCCCCUGUCAGGUUCUGGUGAAUCUGCUAAUUCUGCUGU [A42G G58U]	0.978
GGGGGCCACAGCAGAAGCGUUCACGUCGCGGCCCCUGUCAGAAUCUGGUGAAUCUGCGAAUUCUGGUGU [U43A C66G]	0.572
GGGGGCCACAGCAGAAGCGUUCACGUCGCGGCCCCUGUCAGGUUCUGGUGAAUCUGCGAAUUCUGCUCU [A42G G68C]	0.963
GGGGGCCACAGCAGAAGCGUUCACGUCGCGGCCCCUGUCAGGUUCUGGUGAAUCUGCGAAUUCUGCUUU [A42G G68U]	1.01
GGGGGCCACAGCAGAAGCGUUCACGUCGCGGCCCCUGUCAGGUUCUGGUGAAUCUGCGAAUUCUGCUAU [A42G G68A]	0.98
GGGGGCCACAGCAGAAGCGUUCACGUCGCGGCCCCUGUCAGAAUCUGGUGAAUUUGCGAAUUCUGCUGU [U43A C54U]	0.771
GGGGGCCACAGCAGAAGCGUUCACGUCGCGGCCCCUGUCAGGUUCUGGUGAAUCUGCGAAUUCUGCUGA [A42G U69A]	1.01
